We go through two substances from patent US20110039785A1, “POLYPEPTIDE-NUCLEIC ACID CONJUGATES AND USES THEREOF” (Angiochem Inc., priority 2007, published 2011).

For series [1], the system named is liver, lung, kidney, spleen, and muscle cells. The following applies: cited from earlier work.
The next series deals with BBB. The experiment in a line: in situ brain perfusion in mice. In kind it is in vivo. The following applies: 125 nM radiolabeled conjugate; uptake into the brain; FIG. 20. The procedure:
Transport of the conjugates was measured in vivo using in situ brain perfusion in mice. […] The amount present in the brain parenchyma was determined following brain capillary depletion (FIG. 6).
In situ perfusions using 125 nM of the cleavable and non-cleavable conjugates were performed, and uptake into the brain was measured. Inulin was used as a control. […] Kin values were measured for each protein: The cleavable conjugated has a Kin value of 1.1×10^−4 ml/s/g, the non-cleavable has a Kin value of 4.7×10^−5 ml/s/g, and inulin has a Kin value of 2.1×10^−5 ml/s/g.
Partition into brain compartments of the siRNA following capillary depletion was also measured. This perfusion was also performed at 125 nM.
In situ perfusions were also performed using fluorescent siRNA.

“T F F Y G G S R G R R N N F R T E E Y (TFFYGGSRGRRNNFRTEEY) [AngioPep-7]”: in series [1], the “transport into cells of tissues” value is “efficiently transported into liver, lung, kidney, spleen, and muscle cells”. For inulin, the Kin with BBB worked out at 2.1e-05 mL/s/g.
